Key:
DRB1*07:01 = DRB1*07:01 (Homo sapiens, UniProt P01903+P01911, A100R/A102G/A103Q/D57E/D86V/E43K/F76Y/K127E/L162R/M171V/P40G/Q125H/Q99D/R33Q/R42Y/R54Q/S133A/S66F/T210M/V115G/Y107V/Y59L/Y89S); assay type: cell-based; details: for MCR2 construct expression (presentation): 12mer peptides in DRB1*07:01-MCR2
[1] = system: TCRs from the BAL of COVID-19 patients; assay type: cell-based, human

Substance	MCR2 construct expression (presentation) (DRB1*07:01)	recognition by TCR007 (NFAT activation) [1]	peptide presentation by DRB1*07:01 (FACS staining, MEDi-MA scores) (DRB1*07:01; mutated versus WT peptides)
S714-725(T716I): Spike 12mer peptide with T716I cloned into DRB1*07:01-MCR2	expressed well		
S714-725: Spike 12mer peptide cloned into DRB1*07:01-MCR2	expressed well	not	
S714-728 (T716I): Spike 15mer 714-728 with the T716I mutation of the B1.1.7 variant		not recognized	presented as well as the WT

From patent US20220033460A1, “IDENTIFICATION AND USE OF T CELL EPITOPES IN DESIGNING DIAGNOSTIC AND THERAPEUTIC APPROACHES FOR COVID-19” (priority 2020, published 2022)
